In US20050053973A1 (published 2005):

Columns and labels:
[1] = biological target: T1, human serum albumin (human, UniProt P02768 25-609); assay: ELISA, 0.5 µg HSA per well, expression lysate, anti-HA-HRP, signal equal to or better than the anti-HSA trimer
T1 construct: also called HSA; HAS

[2] = biological target: CD28 on monkey PBMC (monkey); assay: cell-based or functional assay
[3] = biological target: human IgE (human, UniProt P01854 1-428); assay: Biacore, human IgE coupled to a CM5 chip by NHS/EDC, sample protein in flow
human IgE, sequence (P01854 other isoform, or with tags, fused parts or gaps): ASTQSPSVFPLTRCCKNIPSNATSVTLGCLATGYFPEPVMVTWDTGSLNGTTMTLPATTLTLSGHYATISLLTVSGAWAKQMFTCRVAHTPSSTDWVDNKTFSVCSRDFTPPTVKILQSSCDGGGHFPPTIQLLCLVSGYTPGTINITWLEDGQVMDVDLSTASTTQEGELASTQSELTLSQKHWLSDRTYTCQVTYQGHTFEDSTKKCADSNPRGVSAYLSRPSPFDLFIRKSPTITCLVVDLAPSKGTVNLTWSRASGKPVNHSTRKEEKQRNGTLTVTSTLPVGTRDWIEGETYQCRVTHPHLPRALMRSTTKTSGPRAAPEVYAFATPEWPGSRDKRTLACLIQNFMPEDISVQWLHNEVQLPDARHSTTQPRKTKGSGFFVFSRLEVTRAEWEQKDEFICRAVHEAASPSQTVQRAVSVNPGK
Source text: Human IgE was immobilized to a CM5 chip (BiaCore) using standard NHS/EDC methods. Sample proteins were dialyzed into HBS buffer overnight, and the dialysis buffer was used as a running buffer for the experiment. Sample proteins were run successively over IgE or ethanolamine coated flow cells, and the data analyzed using the BiaEvaluation software package.

**Q.** Does CNPTGKFKCRSGRCVPRESCRCDGVDDCEDNSDEKDCQPHTSLQ (designed binder, HA fusion, tested as expression lysate) [A1_34] bind [1]?
**A.** Result: binds

B1: CD28-A10 (designed binder)
chain: CGPGRFQCESGQCVPATWVCDGDDDCADGSDEKSCATTAPTCESNQFQCGSGQCLPGTWRCDGVNDCADSSDETGCGRPGPGATSAPAACGPGRFQCNNGNCVPQTLGCDGDNDCGDSSDEANCSAPASEPPGSL
**Q.** With B1 as the binder, how does the “IC50, PBMC assay on monkey cells” value [2] read?
**A.** Its value is 0.007 µM.

B2: recombinant human FcERI protein (receptor, UniProt P12319 26-205, looked up)
chain: VPQKPKVSLNPPWNRIFKGENVTLTCNGNNFFEVSSTKWFHNGSLSEETNSSLNIVNAKFEDSGEYKCQHQQVNESEPVYLEVFSDWLLLQASAEVVMEGQPLFLRCHGWRNWDVYKVIYYKDGEALKYWYENHNISITNATVEDSGTYYCTGKVWQLDYESEPLNITVIKAPREKYWLQ
notes: also called recombinant FcERI; recombinant soluble IgE receptor
**Q.** Which Kd [3] does the source give for B2 here?
**A.** The Kd was 0.45 µM.
